How the values were obtained:
Experiment in all cases: gel electrophoresis; eluent of Ni-charged magnetic beads (0.5 M NaCl, 20 mM HEPES, 500 mM imidazole, 0.5% Genapol X-80, pH 8.0) after heating the lysate at 90 °C for 10 min; 4–20% Mini-PROTEAN TGX Gel, 200 V for 27 min; self-assembly, octamer band
[1] = target: M2 MspA (Mycobacterium smegmatis porin A mutant M2) (Mycobacterium smegmatis) (UniProt A0QR29)
[2] = target: MspA-C (M2 MspA with cysteine at site 91) (Mycobacterium smegmatis)
[3] = target: MspA-D (M2 MspA with aspartic acid at site 91) (Mycobacterium smegmatis)
[4] = target: MspA-H (M2 MspA with histidine at site 91) (Mycobacterium smegmatis)
[5] = target: MspA-M (M2 MspA with methionine at site 91) (Mycobacterium smegmatis)

M2 MspA (Mycobacterium smegmatis porin A mutant M2) (from UniProt A0QR29 28-211) (natural protein)
stoichiometry N [1]: 8

MspA-C (M2 MspA with cysteine at site 91) (natural protein)
stoichiometry N [2]: 8

MspA-D (M2 MspA with aspartic acid at site 91) (natural protein)
stoichiometry N [3]: 8

MspA-H (M2 MspA with histidine at site 91) (natural protein)
stoichiometry N [4]: 8

MspA-M (M2 MspA with methionine at site 91) (natural protein)
stoichiometry N [5]: 8
